Results: the supplement of paper PMC10724198
± gives the standard deviation of the averaged measurements.

system: Saccharomyces cerevisiae; experiment: protein stability index of tFT-peptide fusion (C-terminal peptide) (PSI (0-1 scale)); higher = more stable (slower turnover); conditions: genetic background: wild type; temperature: 30 C
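Note: PSI is a weighted mean of sequencing reads over stability bins, variants kept only with over 10 reads, mCherry proximal and sfGFP distal, peptide attached via GGGS linker.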

Sequence	protein stability index
WLEVHVRERPGL	0.661 ± 0.035
REPFCVVGGREG	0.681 ± 0.04
PRPLPPPPAFLP	0.766 ± 0.08
QKKTKRGLTYTS	0.67 ± 0.043
IVLLNLTHVRSK	0.647 ± 0.024
AGEGGRKGGGSR	0.676 ± 0.014
RQYCTRDHNIIK	0.732 ± 0.025
PSHPPPPATPCP	0.7108 ± 0.0065
VVGRVGGFVGPG	0.677 ± 0.1
RGPTGEDLCSAM	0.696 ± 0.032
PPSVTLSEMTTG	0.642 ± 0.025
FVALCHCVRISR	0.697 ± 0.013
VIGRRRLQDWII	0.736 ± 0.081
SSRPLISTLTPY	0.661 ± 0.014
VHWVVFSVPRQA	0.73 ± 0.033
NGGSAKVYLGKI	0.652 ± 0.019
PTIRKDPLGFLR	0.707 ± 0.0084
PSPPPLSSPPSP	0.6425 ± 0.003
LTAFFPFSTFFP	0.714 ± 0.042
PEFNKLNRFVSQ	0.74 ± 0.11
GRVVLRISCAQI	0.6144 ± 0.00074
GEERRGRCGEKQ	0.597 ± 0.087
GASSLGVNGGSV	0.6954 ± 0.0021
YQRENYERKGYR	0.681 ± 0.067
KNKTTKKRKKRP	0.695 ± 0.057
KSVPLCSLGTTG	0.6726 ± 0.0036

Sequence	protein stability index
AGRAVAAAVRED	0.728 ± 0.076
EKKKEKHKDQEK	0.692 ± 0.055
GNPRRNLSTSSR	0.712 ± 0.02
RRGCTKYGSYII	0.696 ± 0.082
GLRLLVLPDSWS	0.682 ± 0.056
SRHFPLGTVHVP	0.756 ± 0.065
TLPSPPPRPPPA	0.702 ± 0.061
VRPREWMIPFEC	0.709 ± 0.012
KARMEKKRKIKL	0.728 ± 0.073
SASPVAGWLGGP	0.677 ± 0.044
GSVCVGGFGFFG	0.657 ± 0.039
QYASPSISTLPV	0.726 ± 0.065
MCGLVGDVLAVG	0.762 ± 0.1
LSPFPLFAPFNF	0.635 ± 0.039
CIFWGSGWDTLV	0.728 ± 0.063
VCAVPSILPPPP	0.6902 ± 0.0061
GVVGVQTLIISN	0.653 ± 0.043
NKRKDEIKPRNV	0.581 ± 0.049
DRFLPPALVMYI	0.566 ± 0.038
AIFAPPFPPTPV	0.69 ± 0.071
QSWEDILKINEE	0.757 ± 0.011
DRVGGCESRAGR	0.651 ± 0.04
TGPGCWVCCVGE	0.648 ± 0.048
MRDRDSVDNMDG	0.666 ± 0.025
MRPSLSDAMMSS	0.687 ± 0.055
VGPVDPGDSDGL	0.699 ± 0.0065

Sequence	protein stability index
PPRLPPLPSSLL	0.721 ± 0.033
ATVPLVTPLPHF	0.697 ± 0.042
LGKAVSDMDETH	0.687 ± 0.026
SLGGRVAGGWRD	0.645 ± 0.1
IRLQKEGIKKIL	0.699 ± 0.019
SFVSRSRLAEVD	0.682 ± 0.073
VPPLRPVAPCRG	0.533 ± 0.014
GVWLWVLGACRR	0.657 ± 0.057
PKQMVVRRSRRP	0.695 ± 0.07
SPRPTRCGQNSM	0.6897 ± 0.0053
PSTPFAPPSATY	0.685 ± 0.014
PLLPSPLIPFSH	0.688 ± 0.026
PPPISTLSSSPS	0.582 ± 0.059
AWDSVNDSDPPR	0.717 ± 0.035
PSPSPPLAPPVT	0.647 ± 0.038
LSGCASGYRPPW	0.683 ± 0.047
RAASLVSCSLIL	0.672 ± 0.024
PPPPAPYRPPSC	0.682 ± 0.0054
GSPALGSCSWSR	0.627 ± 0.057
FLPHPSPDPLPP	0.588 ± 0.12
VWGIIQTDRMGR	0.744 ± 0.017
TQSAPGIPGAGE	0.65 ± 0.025
VVSITYCGQGGG	0.694 ± 0.045
VRPFTLLSSYSV	0.644 ± 0.028
SCIAVRDPWGLV	0.683 ± 0.018
LPNLCRLISFGS	0.646 ± 0.036

Sequence	protein stability index
KKKKKIPKKAKR	0.666 ± 0.049
GSMVWVRCGLER	0.634 ± 0.022
VPLSPVSSGAPD	0.66 ± 0.04
GTVEDVLIFYEP	0.691 ± 0.1
SLLLPPRPPSPS	0.672 ± 0.017
WYHALTLASWLS	0.577 ± 0.021
LVFPRCAFGFCF	0.6791 ± 0.0047
LRWFLTGWPRGE	0.699 ± 0.16
ESIEVGTGDWGG	0.673 ± 0.053
PFPSTIQSYSYS	0.738 ± 0.07
SPVRRGRCRLSG	0.728 ± 0.1
GAIRLSLMLLPQ	0.686 ± 0.042
IRRTNRKETRKE	0.686 ± 0.042
VYACGVDFNVRG	0.678 ± 0.094
SFRFCSNRFTRL	0.699 ± 0.056
VFWGGGAVGSVR	0.69 ± 0.071
GNRNGEFINTQI	0.665 ± 0.027
LSGGAVVEVHFL	0.674 ± 0.011
WASKVGSYICAE	0.671 ± 0.02
PPPVLPSPRSDP	0.667 ± 0.17
RPPPPRPRSLLS	0.654 ± 0.097
YNKKKKRYKKKF	0.72 ± 0.0076
SRHRVGLPIQIF	0.526 ± 0.022
IGLRVLSNSYEV	0.694 ± 0.031
PPPSAPLPPSPP	0.6424 ± 0.0043
GMLCRAGPVRNV	0.732 ± 0.011

Sequence	protein stability index
VWTATLRPPGHP	0.655 ± 0.068
LPFLLPLVTPLP	0.696 ± 0.068
PRPAPLPAPPPS	0.679 ± 0.029
PQPLYAPFPPPL	0.789 ± 0.096
RRTSPNKNLKNQ	0.618 ± 0.097
LGLMSSCFSMWC	0.657 ± 0.15
CSGPARERPVRF	0.709 ± 0.062
SLAPLPLIVLFL	0.487 ± 0.023
PSLPVPLVPPLS	0.633 ± 0.014
RCFLFSPCWAFS	0.5889 ± 0.002
PLTFARLPPPTL	0.678 ± 0.021
PQPLFLPSPLSR	0.702 ± 0.06
GGVGGGRAGVWG	0.681 ± 0.021
NTTIQLWVERRQ	0.679 ± 0.063
DSSYVYHFRCVS	0.62055 ± 0.00019
GGWHVVGGAGVG	0.564 ± 0.01
PPLLDLATYSSS	0.697 ± 0.061
RLPSSPPSATWL	0.6784 ± 0.0019
FPDTRSLPLPPG	0.687 ± 0.011
ILCLPFSVSSPS	0.61579 ± 0.00015
APPPLPPLPPSP	0.727 ± 0.2
GIPPVLFAPPPL	0.696 ± 0.022
LFQKRAIGGAWL	0.742 ± 0.039
RVWIWHPPTVRD	0.625 ± 0.016
REWLGCYVFGVR	0.677 ± 0.022
RRTRRSTGHATG	0.665 ± 0.043

Sequence	protein stability index
PPSPPIPPPPAP	0.732 ± 0.053
LVFRSMFFFRLF	0.66 ± 0.017
PVPRCGLPLSLP	0.685 ± 0.1
LCFPHDFFSSSS	0.7768 ± 0.0058
ADLEQTWRYRLD	0.674 ± 0.031
GGGGGGGVGMMW	0.738 ± 0.02
QWGGWGVGRIEG	0.629 ± 0.069
SSSEGNRGSLQY	0.774 ± 0.041
VGGGGECCFLEG	0.826 ± 0.1
SVSEIGYEIRSL	0.739 ± 0.068
MSIDQPLLGTGV	0.638 ± 0.034
VCVDLFGLRASA	0.631 ± 0.044
ILSPLRHPEPTR	0.70614 ± 9.6e-05
CSRFPYSHSLSQ	0.716 ± 0.016
ALLPLPPSPSLL	0.719 ± 0.0097
LSGYLVCSLSLR	0.695 ± 0.045
LIRRTECPRSTS	0.6782 ± 0.0048
SPLTSSSLPPRT	0.691 ± 0.032
PPLGMPLYHPRP	0.7426 ± 0.0021
SLLLSRPLSTSH	0.6945 ± 0.0031
LTEFVVFFFFVF	0.5166 ± 0.0049
RVVEFGFGGCHW	0.758 ± 0.061
VPDDGVLLSVLE	0.7182 ± 0.0017
DAGRLLIVSVDS	0.662 ± 0.036
PPPPPPPASLLP	0.755 ± 0.056
VVGHGLAGCKVG	0.668 ± 0.037

Sequence	protein stability index
SPHLPPLPDPSP	0.576 ± 0.0069
SERKAKAEVAEA	0.692 ± 0.064
AAIPPPLHTWRY	0.722 ± 0.054
VSCNRGAYVRSR	0.6776 ± 0.0053
VGFGFVRSLLVG	0.6151 ± 0.005
ERERREGEGKRQ	0.721 ± 0.023
VTREEALICSQP	0.811 ± 0.13
SRSCCPGVRVRF	0.709 ± 0.03
DHIALIWGCSNF	0.703 ± 0.06
RRNARRARARWR	0.637 ± 0.065
STELQKMPQIEY	0.722 ± 0.11
KQQRTKKKEKKR	0.628 ± 0.097
ALHYEVVGRGYL	0.679 ± 0.036
SRSWLPPVFPRV	0.807 ± 0.059
YVVWGGVQGSVL	0.747 ± 0.046
SSLMGGLSAYPG	0.694 ± 0.011
IPPPLPPRAPLP	0.672 ± 0.057
PMYKYKTSQKDL	0.6567 ± 0.0057
GCSPTLMVSFIA	0.572 ± 0.037
PAFGLSPPSFST	0.728 ± 0.089
GVRCCGLCGVGV	0.615 ± 0.0088
DCLRQTVPEGAM	0.723 ± 0.069
KQQCKTGRRRLV	0.716 ± 0.072
FWVGGGVFGVRV	0.747 ± 0.015
DPPPLPPAHSAS	0.658 ± 0.034
SMWKQIRVYGLW	0.636 ± 0.028

Sequence	protein stability index
SHHSVNWKPQGL	0.668 ± 0.025
GVGSVQRCGGGG	0.6771 ± 0.0035
WRGLGWSDAGGG	0.654 ± 0.043
PLGDIRPSPRDS	0.681 ± 0.0086
LPPPPPSSSPSP	0.7005 ± 0.0067
TPSCPALRGDAE	0.661 ± 0.016
RAYRSTCRCSER	0.669 ± 0.081
ETKEAKKKTIDS	0.7217 ± 0.0065
LSFPFLFSVPFL	0.733 ± 0.021
AFFSFLFSNSFL	0.664 ± 0.0082
PLWRPLALSHVS	0.67 ± 0.012
GRSGGVGVLWGG	0.728 ± 0.017
KKIRGNSQLHPG	0.63 ± 0.015
LVVGFRVGLRGV	0.669 ± 0.035
NPLHGNIRLSPL	0.685 ± 0.046
LGGGSGCVEGGL	0.713 ± 0.082
DFSSLIISFPFI	0.627 ± 0.059
PSDTHTPDQPAK	0.694 ± 0.056
PMVETKVGGIAN	0.705 ± 0.043
LDTRTLGVLTVG	0.633 ± 0.025
